Test results as given in patent US20210102195A1.

Tests used:
[1] = target: human CD3 epsilon (human) (UniProt P07766); experiment: flow cytometry (MFI), titration 0.05-100 nM on Jurkat cells (2901)
[2] = target: human CD3 epsilon (human) (UniProt P07766); experiment: flow cytometry (MFI), titration 0.05-100 nM on CD8+ T cells (2903)
[3] = target: human CD3 epsilon (human) (UniProt P07766); experiment: flow cytometry (MFI), titration 0.05-100 nM; cells not named on the panel, the same value stands for CD8+ T-Cell in FIG. 29F
cyno CD3 epsilon (cyno) = cyno CD3 epsilon (cyno) (UniProt Q95LI5); experiment: biosensor sensorgrams with fits, instrument not named in Example 14; antigen not printed on the panel: taken as cyno CD3 epsilon because 28G-28I and 28J-28L repeat the same three spots (57, 169, 205) and the text gives 67 nM (28G) for human and 107 nM (28J) for cyno
[4] = target: human CD3 epsilon (human) (UniProt P07766); experiment: biosensor sensorgrams with fits, instrument not named in Example 14; antigen not printed on the panel: taken as human CD3 epsilon because 28G-28I and 28J-28L repeat the same three spots (57, 169, 205) and the text gives 67 nM (28G) for human and 107 nM (28J) for cyno

human CD3 epsilon (human), sequence (P07766 23-126 limits assumed): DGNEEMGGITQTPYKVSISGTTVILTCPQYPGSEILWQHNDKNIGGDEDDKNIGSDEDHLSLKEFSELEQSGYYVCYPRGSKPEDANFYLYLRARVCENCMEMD
cyno CD3 epsilon (cyno), sequence (Q95LI5 22-117 limits assumed): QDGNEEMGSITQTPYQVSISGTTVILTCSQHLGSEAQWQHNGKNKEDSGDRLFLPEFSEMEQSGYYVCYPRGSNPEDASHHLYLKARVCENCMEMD

Row | EC50 [1] | EC50 [2] | EC50 [3] | Kd (cyno CD3 epsilon (cyno)) | Kd [4] | Substance
1 | 0.537 nM | 3.05 nM | 3.05 nM |  |  | R&D MAB100 (antibody)
2 |  |  |  | 38 nM | < 0.0019 nM | muSP34 (antibody)
